Experimental data from paper PMC7305236.
No end group written: not given here.

Tests used:
[1] = target: atypical chemokine receptor ACKR3 (formerly CXCR7) (human) (UniProt P25106)
[2] = target: mu opioid receptor (MOR) (human) (UniProt P35372)
[3] = target: delta opioid receptor (DOR) (human) (UniProt P41143)
[4] = target: kappa opioid receptor (KOR) (human) (UniProt P41145)

Sequence of atypical chemokine receptor ACKR3 (formerly CXCR7) (human) (P25106 whole entry): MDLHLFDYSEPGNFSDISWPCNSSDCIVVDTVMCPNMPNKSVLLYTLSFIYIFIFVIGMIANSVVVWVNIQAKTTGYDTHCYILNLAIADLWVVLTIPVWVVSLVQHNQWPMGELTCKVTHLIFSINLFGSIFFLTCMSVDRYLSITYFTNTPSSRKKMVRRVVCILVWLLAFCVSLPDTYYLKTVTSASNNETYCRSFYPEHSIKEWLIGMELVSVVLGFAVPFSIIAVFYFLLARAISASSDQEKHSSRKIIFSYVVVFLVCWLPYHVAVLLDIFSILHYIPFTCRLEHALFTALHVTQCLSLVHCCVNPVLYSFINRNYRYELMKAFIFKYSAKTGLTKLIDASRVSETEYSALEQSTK

B1: adrenorphin-derived peptide FGGFMRRV (peptide)
peptide: FGGFMRRV-NH2
Supplementary Table 4: EC50 of β-arrestin-1 recruitment to ACKR3, U87 cells [1]: 9.33 nM

B2: adrenorphin-derived peptide YRGFMRRV (peptide)
peptide: YRGFMRRV-NH2
Supplementary Table 4: EC50 of β-arrestin-1 recruitment to ACKR3, U87 cells [1]: 5000 nM

B3: adrenorphin-derived peptide YGGAMRRV (peptide)
peptide: YGGAMRRV-NH2
Supplementary Table 4: EC50 of β-arrestin-1 recruitment to ACKR3, U87 cells [1]: 10000 nM

B4: adrenorphin-derived peptide LGGFMRRV (peptide)
peptide: LGGFMRRV-NH2
Supplementary Table 4: EC50 of β-arrestin-1 recruitment to ACKR3, U87 cells [1]: 261 nM

B5: adrenorphin-derived peptide YAGFMRRV (peptide)
peptide: YAGFMRRV-NH2
Supplementary Table 4: EC50 of β-arrestin-1 recruitment to MOR, U87 cells [2]: 1090 nM
Supplementary Table 4: EC50 of β-arrestin-1 recruitment to DOR, U87 cells [3]: 2320 nM
Supplementary Table 4: EC50 of β-arrestin-1 recruitment to ACKR3, U87 cells [1]: 611 nM

B6: adrenorphin-derived peptide YGGFMRRA (peptide)
peptide: YGGFMRRA-NH2
Supplementary Table 4: EC50 of β-arrestin-1 recruitment to MOR, U87 cells [2]: 265 nM
Supplementary Table 4: EC50 of β-arrestin-1 recruitment to KOR, U87 cells [4]: 132 nM
Supplementary Table 4: EC50 of β-arrestin-1 recruitment to DOR, U87 cells [3]: 260 nM
Supplementary Table 4: EC50 of β-arrestin-1 recruitment to ACKR3, U87 cells [1]: 201 nM

B7: adrenorphin-derived peptide YGGFNRRV (peptide)
peptide: YGGFNRRV-NH2
Supplementary Table 4: EC50 of β-arrestin-1 recruitment to KOR, U87 cells [4]: 508 nM
Supplementary Table 4: EC50 of β-arrestin-1 recruitment to ACKR3, U87 cells [1]: 10000 nM

B8: adrenorphin-derived peptide - GGFMRRV (peptide)
peptide: GGFMRRV-NH2
Supplementary Table 4: EC50 of β-arrestin-1 recruitment to ACKR3, U87 cells [1]: > 10000 nM

B9: adrenorphin-derived peptide YGGYMRRV (peptide)
peptide: YGGYMRRV-NH2
Supplementary Table 4: EC50 of β-arrestin-1 recruitment to ACKR3, U87 cells [1]: 5000 nM

B10: adrenorphin-derived peptide YGGFKRRV (peptide)
peptide: YGGFKRRV-NH2
Supplementary Table 4: EC50 of β-arrestin-1 recruitment to ACKR3, U87 cells [1]: 10000 nM

B11: adrenorphin-derived peptide YGGFMRAV (peptide)
peptide: YGGFMRAV-NH2
Supplementary Table 4: EC50 of β-arrestin-1 recruitment to MOR, U87 cells [2]: 682 nM
Supplementary Table 4: EC50 of β-arrestin-1 recruitment to KOR, U87 cells [4]: 1250 nM
Supplementary Table 4: EC50 of β-arrestin-1 recruitment to DOR, U87 cells [3]: 308 nM

B12: adrenorphin-derived peptide YGGLMRRV (peptide)
peptide: YGGLMRRV-NH2
Supplementary Table 4: EC50 of β-arrestin-1 recruitment to ACKR3, U87 cells [1]: 10000 nM

B13: adrenorphin-derived peptide YGGFMRRF (peptide)
peptide: YGGFMRRF-NH2
Supplementary Table 4: EC50 of β-arrestin-1 recruitment to MOR, U87 cells [2]: 198 nM
Supplementary Table 4: EC50 of β-arrestin-1 recruitment to KOR, U87 cells [4]: 80.9 nM
Supplementary Table 4: EC50 of β-arrestin-1 recruitment to DOR, U87 cells [3]: 212 nM
Supplementary Table 4: EC50 of β-arrestin-1 recruitment to ACKR3, U87 cells [1]: 73.5 nM

B14: adrenorphin-derived peptide AGGFMRRV (peptide)
peptide: AGGFMRRV-NH2
Supplementary Table 4: EC50 of β-arrestin-1 recruitment to ACKR3, U87 cells [1]: > 10000 nM

B15: adrenorphin-derived peptide YSGFMRRV (peptide)
peptide: YSGFMRRV-NH2
Supplementary Table 4: EC50 of β-arrestin-1 recruitment to ACKR3, U87 cells [1]: 10000 nM

B16: adrenorphin-derived peptide YGGFMRRI (peptide)
peptide: YGGFMRRI-NH2
Supplementary Table 4: EC50 of β-arrestin-1 recruitment to MOR, U87 cells [2]: 188 nM
Supplementary Table 4: EC50 of β-arrestin-1 recruitment to KOR, U87 cells [4]: 76.9 nM
Supplementary Table 4: EC50 of β-arrestin-1 recruitment to DOR, U87 cells [3]: 320 nM
Supplementary Table 4: EC50 of β-arrestin-1 recruitment to ACKR3, U87 cells [1]: 115 nM

B17: adrenorphin-derived peptide YGGFMRKV (peptide)
peptide: YGGFMRKV-NH2
Supplementary Table 4: EC50 of β-arrestin-1 recruitment to MOR, U87 cells [2]: 786 nM
Supplementary Table 4: EC50 of β-arrestin-1 recruitment to KOR, U87 cells [4]: 230 nM
Supplementary Table 4: EC50 of β-arrestin-1 recruitment to DOR, U87 cells [3]: 378 nM
Supplementary Table 4: EC50 of β-arrestin-1 recruitment to ACKR3, U87 cells [1]: 10000 nM

B18: adrenorphin-derived peptide YGGFMRRL (peptide)
peptide: YGGFMRRL-NH2
Supplementary Table 4: EC50 of β-arrestin-1 recruitment to MOR, U87 cells [2]: 294 nM
Supplementary Table 4: EC50 of β-arrestin-1 recruitment to KOR, U87 cells [4]: 71.2 nM
Supplementary Table 4: EC50 of β-arrestin-1 recruitment to DOR, U87 cells [3]: 254 nM
Supplementary Table 4: EC50 of β-arrestin-1 recruitment to ACKR3, U87 cells [1]: 153 nM
